Data reported in patent US20100287629A1 (published 2010).
Blank lines part the entries; values can stand above or below the binder they belong to.

Molecular target: T1, native human CD4 on the cell surface (human, UniProt P01730 26-458)
T1 construct: whole, on cells; also called CD4 on SupT1 cells; CD4 on human PBL/PBMC
Test: flow cytometry on SupT1 cells; half-maximal fluorescence, four-parameter fit
Method: The avidity and affinity determinations described above were performed with recombinant CD4 (rCD4). To determine the avidity of the human monoclonal antibodies for native CD4 (nCD4). […] Specifically, serial dilutions of antibody were incubated with SupT1 cells for 6 hr on ice, washed and detected any bound antibody with FITC-goat anti-human Fcγ.
*Human monoclonal antibodies were incubated in serial dilutions with SupT1 cells for 6 hrs, washed twice and incubated with FITC-conjugated goat anti-human Fcγ antisera, washed and fixed. The Ka was calculated from the concentration of antibody yielding one-half of the maximum fluorescence as determined from a four-parameter fit.

Ka: 1.9e+09 M⁻¹
B1: human IgG kappa anti-CD4 monoclonal antibody 6G5 (antibody, V domains shown)
VH: QVQLQQWGAGLLKPSETLSLTCAVYGGSFSGYYWSWIRQPPGKGLEWIGEINHSGSTNYNPSLKSRVTISVDTSKNQFSLKLSSVTAADTAVYYCARVINWFDPWGQGTLVTVSS
VL: DIQMTQSPSSVSASVGDRVTITCRASQDISSWLAWYQHKPGKAPKLLIYAASSLQSGVPSRFSGSGSGTDFTLTISSLQPEDFATYYCQQANSFPYTFGQGTKLEIK
notes: Human IgG1 kappa from hybridoma of an HC2/KCo5/JHD/JCKD mouse; CDR3 VINWFDP (VH4-34, JH5); l.c; also called 6G5.1

Ka: 1.8e+09 M⁻¹
B2: human IgG kappa anti-CD4 monoclonal antibody 10C5 (antibody, V domains shown)
VH: B1 VH
VL: B1 VL
notes: Human IgG1 kappa from hybridoma of an HC2/KCo5/JHD/JCKD mouse; CDR3 VINWFDP (VH4-34, JH5); l.c; same primary B cell as 6G5; also called 10C5.6
